One assay relates to NBF-1 and NBF-2 of SUR-1. In words: GST pull-down binding of Syn-1A or SNAP-25 with GST-NBF-1 / GST-NBF-2 of SUR-1, Western blot. The settings on record: 375 pmol protein each, 4° C., 2 hours, glutathione beads. How it is done: (§1) GST (control) or GST-NBF-1 or GST-NBF-2 (375 pmol protein)of SUR-1 or SUR-2A, bound to glutathione beads, was incubated with Syn-1A or SNAP-25 (375 pmol protein) in 25 mM Hepes (pH 7.4) with 50 mM NaCl, 0.1% gelatin, 0.1% Triton X-100, 0.1% BSA and 0.2% β-mercaptoethanol at 4° C. for 2 hours. Following washing the beads three times with 20 mM Hepes(pH 7.4) with 150 mM KoAc, 1 mM EDTA, 1 mM MgCl2, 5% glycerol and 0.1% Triton X-100, the samples were subjected to 15% SDS-PAGE, transferred to nitrocellulose membrane and probed with antibody against Syn-1A (1:2000) or SNAP-25 (1:1000).
(In general: In western blotting, separated proteins are transferred to a membrane and probed.)

The test system of assay [1] is NBF-1 and NBF-2 of SUR-2A. In words: GST pull-down binding of Syn-1A or SNAP-25 with GST-NBF-1 / GST-NBF-2 of SUR-2A, Western blot. The note with it: 375 pmol protein each, 4° C., 2 hours, glutathione beads. How it is done:
as §1

Assay [2] deals with T1, KATP channel (SUR1/KATP complex) in insulinoma HIT cells (Cricetus cricetus, UniProt Q09427).
T1 construct: in HIT cells on the endogenous KATP whole-cell currents; endogenous in cells; host or cells: insulinoma HIT cells
T1 sequence (Q09427 whole entry, one chain of several): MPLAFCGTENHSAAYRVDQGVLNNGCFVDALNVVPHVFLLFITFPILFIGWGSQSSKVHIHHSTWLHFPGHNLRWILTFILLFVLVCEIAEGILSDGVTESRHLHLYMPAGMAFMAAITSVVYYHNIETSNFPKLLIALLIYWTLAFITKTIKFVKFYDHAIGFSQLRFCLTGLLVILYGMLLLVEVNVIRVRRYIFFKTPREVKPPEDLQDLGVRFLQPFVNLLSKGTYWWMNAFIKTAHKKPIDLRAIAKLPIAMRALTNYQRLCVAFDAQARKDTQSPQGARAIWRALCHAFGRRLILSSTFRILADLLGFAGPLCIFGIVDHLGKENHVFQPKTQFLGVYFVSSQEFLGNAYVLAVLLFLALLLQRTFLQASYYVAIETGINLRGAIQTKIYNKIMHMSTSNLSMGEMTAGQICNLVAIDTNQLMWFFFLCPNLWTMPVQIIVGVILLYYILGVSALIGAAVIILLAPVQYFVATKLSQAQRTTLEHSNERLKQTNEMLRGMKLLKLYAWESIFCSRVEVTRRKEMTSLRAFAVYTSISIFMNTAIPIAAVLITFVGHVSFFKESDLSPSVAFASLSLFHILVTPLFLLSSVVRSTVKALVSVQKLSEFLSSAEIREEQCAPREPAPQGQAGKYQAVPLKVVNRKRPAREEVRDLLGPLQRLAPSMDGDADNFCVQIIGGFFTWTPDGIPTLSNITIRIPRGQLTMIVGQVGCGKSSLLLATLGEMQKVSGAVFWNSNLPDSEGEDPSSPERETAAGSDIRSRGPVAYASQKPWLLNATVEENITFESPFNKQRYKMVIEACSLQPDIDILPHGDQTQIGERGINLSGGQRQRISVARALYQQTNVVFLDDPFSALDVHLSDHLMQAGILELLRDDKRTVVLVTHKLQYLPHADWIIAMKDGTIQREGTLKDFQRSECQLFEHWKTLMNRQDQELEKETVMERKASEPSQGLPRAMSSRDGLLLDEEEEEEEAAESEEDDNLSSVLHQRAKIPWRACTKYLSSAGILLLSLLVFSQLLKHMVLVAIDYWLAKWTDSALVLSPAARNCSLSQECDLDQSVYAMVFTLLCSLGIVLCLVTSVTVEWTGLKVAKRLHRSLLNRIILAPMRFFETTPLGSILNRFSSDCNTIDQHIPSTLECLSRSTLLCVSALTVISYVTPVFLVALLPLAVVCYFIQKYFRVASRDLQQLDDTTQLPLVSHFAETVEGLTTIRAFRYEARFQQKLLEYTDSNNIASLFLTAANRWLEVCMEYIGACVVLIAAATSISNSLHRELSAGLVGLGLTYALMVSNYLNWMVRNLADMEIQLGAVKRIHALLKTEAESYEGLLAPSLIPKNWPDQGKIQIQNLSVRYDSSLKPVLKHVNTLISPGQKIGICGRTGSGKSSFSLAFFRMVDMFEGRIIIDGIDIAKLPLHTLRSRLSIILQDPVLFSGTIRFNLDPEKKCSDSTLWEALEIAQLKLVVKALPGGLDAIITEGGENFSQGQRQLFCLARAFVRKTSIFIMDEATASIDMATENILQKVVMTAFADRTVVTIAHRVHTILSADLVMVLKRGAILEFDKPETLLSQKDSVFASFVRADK
The assay is described as follows: KATP whole-cell patch-clamp currents in insulinoma HIT cells. The class given is cell-based. The protocol: Representative KATP whole-cell patch-clamp currents recorded from the control and syntaxin-1A overespressing HIT cells are shown in FIG. 6A. Cells were stimulated by voltage steps from −140 to 0 mV from a holding potential of −50 mV. […] All currents were recorded 15 min after the formation of the whole-cell configuration when a cell interior exchanged with the pipette solution containing low (0.3 mM) ATP concentration. […] An asterisk indicates the first minutes of recording after obtaining the whole-cell configuration. Pipette solution contains 3 mM MgADP and only 0.3 mM ATP. […] Currents were measured at −120 mV, and normalized to the maximal current (Imax).
(The patch-clamp technique gives a direct electrical read-out from membranes.)

Assay [3] addresses T2, KATP channel in rat pancreatic beta cells (Rattus norvegicus, UniProt Q09429).
T2 construct: recorded from the freshly isolated rat pancreatic beta cells; endogenous in cells; host or cells: freshly isolated rat pancreatic beta cells
In words: KATP whole-cell patch-clamp currents in freshly isolated rat pancreatic beta cells. It is filed as cell-based. The protocol:
Representative KATP whole-cell patch-clamp currents recorded from the freshly isolated rat pancreatic beta cells in the absence (control) and presence of recombinant syntaxin-1A protein are shown in FIG. 7A. Cells were stimulated by voltage steps from −140 to −20 mV (or 0 mV) from a holding potential of −50 mV. […] Recombinant syntaxin-1A (10^−3 M) was dialyzed into the cell interior through the patch pipette. […] All currents were recorded 15 min after the formation of the whole-cell configuration when a cell interior exchanged with the pipette solution containing low (0.3 mM) ATP concentration that under control conditions opens the KATP channel.

T2 sequence (Q09429 whole entry): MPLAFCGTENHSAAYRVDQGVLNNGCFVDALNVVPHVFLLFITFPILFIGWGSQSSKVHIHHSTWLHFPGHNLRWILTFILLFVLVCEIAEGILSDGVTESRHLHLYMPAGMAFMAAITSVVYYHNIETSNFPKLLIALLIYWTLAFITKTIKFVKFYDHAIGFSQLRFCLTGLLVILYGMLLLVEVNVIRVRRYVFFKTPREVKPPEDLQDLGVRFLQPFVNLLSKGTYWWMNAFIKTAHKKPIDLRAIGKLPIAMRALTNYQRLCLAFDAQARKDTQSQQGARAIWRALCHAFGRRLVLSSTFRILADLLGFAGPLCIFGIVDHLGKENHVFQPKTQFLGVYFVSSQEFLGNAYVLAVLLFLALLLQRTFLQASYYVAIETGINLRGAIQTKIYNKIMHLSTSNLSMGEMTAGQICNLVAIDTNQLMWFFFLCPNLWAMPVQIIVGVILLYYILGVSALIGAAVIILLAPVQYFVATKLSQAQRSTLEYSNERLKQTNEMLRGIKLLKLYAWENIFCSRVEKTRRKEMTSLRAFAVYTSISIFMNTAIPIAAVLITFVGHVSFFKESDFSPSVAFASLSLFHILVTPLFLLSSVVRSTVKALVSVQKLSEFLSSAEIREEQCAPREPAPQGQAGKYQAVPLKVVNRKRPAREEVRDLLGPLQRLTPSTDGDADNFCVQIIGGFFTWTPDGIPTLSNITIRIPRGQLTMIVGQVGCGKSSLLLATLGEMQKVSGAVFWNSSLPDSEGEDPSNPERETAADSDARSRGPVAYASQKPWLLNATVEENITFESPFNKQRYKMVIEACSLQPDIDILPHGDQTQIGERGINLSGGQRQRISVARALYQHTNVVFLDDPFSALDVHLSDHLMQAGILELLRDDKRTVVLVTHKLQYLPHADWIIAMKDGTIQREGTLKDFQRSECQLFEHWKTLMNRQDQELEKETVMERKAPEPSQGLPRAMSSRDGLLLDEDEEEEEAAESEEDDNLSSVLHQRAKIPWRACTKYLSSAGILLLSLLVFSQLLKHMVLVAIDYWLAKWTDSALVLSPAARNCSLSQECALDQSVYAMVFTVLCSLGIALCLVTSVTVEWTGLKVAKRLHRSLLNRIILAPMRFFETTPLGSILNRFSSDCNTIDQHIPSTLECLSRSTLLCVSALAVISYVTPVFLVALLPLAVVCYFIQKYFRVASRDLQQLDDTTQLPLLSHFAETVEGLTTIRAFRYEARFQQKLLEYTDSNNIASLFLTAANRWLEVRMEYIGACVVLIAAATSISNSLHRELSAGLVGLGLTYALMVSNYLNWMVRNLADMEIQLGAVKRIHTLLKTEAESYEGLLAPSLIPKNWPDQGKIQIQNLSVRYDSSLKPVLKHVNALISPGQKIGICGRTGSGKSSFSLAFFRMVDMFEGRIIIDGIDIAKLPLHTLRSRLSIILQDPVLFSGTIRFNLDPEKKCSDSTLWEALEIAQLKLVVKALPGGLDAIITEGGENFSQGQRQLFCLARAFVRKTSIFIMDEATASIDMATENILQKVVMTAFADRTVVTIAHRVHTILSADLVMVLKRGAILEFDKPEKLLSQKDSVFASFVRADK
T2 sequence (P70673 whole entry partner): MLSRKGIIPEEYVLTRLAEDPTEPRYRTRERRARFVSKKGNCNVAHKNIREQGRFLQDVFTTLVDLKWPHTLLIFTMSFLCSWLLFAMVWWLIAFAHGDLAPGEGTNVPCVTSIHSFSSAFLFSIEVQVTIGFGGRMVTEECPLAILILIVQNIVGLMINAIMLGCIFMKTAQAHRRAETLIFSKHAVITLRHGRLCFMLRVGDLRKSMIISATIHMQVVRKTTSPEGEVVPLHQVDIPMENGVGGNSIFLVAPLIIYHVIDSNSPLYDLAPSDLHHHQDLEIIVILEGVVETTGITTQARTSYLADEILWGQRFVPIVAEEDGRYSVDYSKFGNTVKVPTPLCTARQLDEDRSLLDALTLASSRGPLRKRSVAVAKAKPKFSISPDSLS

Turning to “syntaxin-1A: endogenous SNARE superfamily protein; recombinant rat syntaxin-1A (SEQ ID NO: 1) or overexpressed in cells”, the “binding (pull down) to NBF-1 and NBF-2 of SUR1” value with NBF-1 and NBF-2 of SUR-1 is given as “directly ‘pulled’ down”. Also, the “binding (pull down) to NBF-1 and NBF-2 of SUR2A” value in assay [1] is listed as “directly ‘pulled’ down”. Besides, the “KATP whole-cell currents versus control cells” value in assay [2] (HIT cells transfected with (overexpressing) syntaxin-1A, pipette 0.3 mM ATP, 15 min) was “reduced compared with the control cells”. Besides, in assay [2] (syntaxin-1A overexpressing HIT cells (>3 fold by Western), pipette 0.3 mM ATP, measured at −140 mV), the “KATP whole-cell current at t=15 min relative to t=0 min” value was “remained unchanged”. Further, the “KATP whole-cell currents versus control beta cells” value in assay [3] (recombinant syntaxin-1A 10^−3 M dialyzed through patch pipette, 0.3 mM ATP, 15 min) is reported as “reduced compared with the control beta cells”. For the same substance, the “inhibitory effect on mean KATP whole cell-currents (channel activity)” value in assay [3] (recombinant syntaxin-1A, 0.3 mM ATP in pipette, measured at −120 mV, recorded for 15 minutes) is “strongly inhibits”.
For MgADP [reference compound], the “reversal of syntaxin-1A inhibited KATP current at t=15 min compared with t=0 min” value in assay [2] (MgADP 3 mM in pipette, 0.3 mM ATP, syntaxin-1A overexpressing HIT cells, measured at −120 mV) is reported as 46%.

(Values after patent US7267959B2, “Drug target within the sulfonylurea receptor” (priority 2001, dated 2007).)
